For one substance, elution pH from the protein A (Z-domain) column results are on record in publication PMC5686111.

The assay concerns the target protein A-derived Z-domain of the mAbSelect SuRe resin. The assay is described as follows: protein A (Z-domain) affinity chromatography, pH-gradient elution.

As to human IgG1 T307P, L309Q (antibody), the elution pH from the protein A (Z-domain) column was found to be 4.48 pH.
